Results published in patent US20120148565.

Experiments:
[1] = biological target: Flag tagged ubiquitin
[2] = biological target: GST fused WWP-1 (C. elegans HECT E3 ubiquitin ligase WWP-1, full length, wild type, N-terminal GST from pGEX-KG)
GST fused WWP-1 (C. elegans HECT E3 ubiquitin ligase WWP-1, full length, wild type, N-terminal GST from pGEX-KG), sequence (chain, as listed by the source): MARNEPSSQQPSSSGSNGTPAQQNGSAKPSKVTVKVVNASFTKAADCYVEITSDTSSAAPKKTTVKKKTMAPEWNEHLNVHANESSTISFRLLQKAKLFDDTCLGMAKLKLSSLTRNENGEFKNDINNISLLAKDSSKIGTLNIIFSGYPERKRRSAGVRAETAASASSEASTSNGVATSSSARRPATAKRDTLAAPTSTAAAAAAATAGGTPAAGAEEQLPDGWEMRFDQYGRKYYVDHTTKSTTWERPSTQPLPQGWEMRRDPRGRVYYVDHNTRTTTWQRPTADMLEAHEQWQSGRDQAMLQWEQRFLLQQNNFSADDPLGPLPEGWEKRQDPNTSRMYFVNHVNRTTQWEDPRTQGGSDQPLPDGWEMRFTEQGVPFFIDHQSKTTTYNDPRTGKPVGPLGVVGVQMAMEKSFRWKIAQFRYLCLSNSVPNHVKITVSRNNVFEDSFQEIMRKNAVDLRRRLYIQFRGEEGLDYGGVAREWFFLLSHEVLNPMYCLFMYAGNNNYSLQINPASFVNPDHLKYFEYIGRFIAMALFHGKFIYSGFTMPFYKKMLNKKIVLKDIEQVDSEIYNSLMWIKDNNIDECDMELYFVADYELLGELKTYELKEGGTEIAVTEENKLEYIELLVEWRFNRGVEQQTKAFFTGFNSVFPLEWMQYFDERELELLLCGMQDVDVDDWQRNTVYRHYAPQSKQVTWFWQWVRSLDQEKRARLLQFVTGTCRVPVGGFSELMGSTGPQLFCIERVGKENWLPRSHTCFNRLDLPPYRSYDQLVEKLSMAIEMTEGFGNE

B1: recombinant UBC-18 (C. elegans E2 ubiquitin conjugating enzyme, GST tag removed by thrombin cleavage) (protein)
chain: MSATRRLQKELGDLKNCGVKAYENVECEETNLLKWTVLLIPDKEPYNKGAFKVGITFPVDYPFKPPKVAFETKIYHPNVDEEGKFCLPIVTAENWKPATKTEQVMMALLSLINEPEPSHPIRADVAEEFQKDHKKFMKTAEEHTRKHAEKRPE
in vitro ubiquitin conjugation reaction, SDS/PAGE with or without beta-mercaptoethanol [1]: UBC-18 is indeed a functional E2 and is capable of forming a thiol ester bond with ubiquitin | in vitro ubiquitination assay of WWP-1 with embryo extract from ubc-18(ku354) mutant worms, recombinant UBC-18 added back [2]: ligase activity was restored with the addition of recombinant UBC-18 | in vitro ubiquitination assay using purified components (anti-Flag immunoblot) [2]: WWP-1 exhibited ubiquitin ligase activity in an E1 and UBC-18 dependent manner
